From paper PMC4902928, “Molecular characterization of flavanone 3-hydroxylase gene and flavonoid accumulation in two chemotyped safflower lines in response to methyl jasmonate stimulation” (BMC Plant Biology, 2016)

System: T1, O=C1C[C@@H](c2ccc(O)cc2)Oc2cc(O)cc(O)c21
T1 construct: MBP fusion (pMAL-c5X) from E. coli BL21(DE3)pLysS, MBP tag cut off by factor Xa
Test: UPLC-Q-TOF/MS of dihydrokaempferol formed; Michaelis-Menten fit
Assay type: biochemical, Carthamus tinctorius
Settings: 1 mM 2-oxoglutaric acid, 40 μM FeSO4, 2 mg/ml ascorbic acid, 100 mM tricine pH 7.5, 30 °C, naringenin 10-800 μM, unit misprinted as 'Mm'

CtF3H (Carthamus tinctorius), sequence (chain, as listed by the source): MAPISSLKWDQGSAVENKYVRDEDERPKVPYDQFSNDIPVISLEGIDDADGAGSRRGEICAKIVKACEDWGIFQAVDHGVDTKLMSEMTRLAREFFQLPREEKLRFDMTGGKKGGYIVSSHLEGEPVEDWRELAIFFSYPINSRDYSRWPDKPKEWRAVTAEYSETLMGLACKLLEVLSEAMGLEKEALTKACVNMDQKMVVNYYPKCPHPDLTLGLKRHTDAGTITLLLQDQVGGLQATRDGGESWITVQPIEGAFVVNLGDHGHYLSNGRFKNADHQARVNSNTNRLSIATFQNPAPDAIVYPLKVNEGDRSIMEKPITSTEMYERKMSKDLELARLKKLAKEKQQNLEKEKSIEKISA

CtF3H (Carthamus tinctorius)
Km: 43.75 ± 7.12 µM
